Measurements as given in PMC7943553, “Naturally acquired blocking human monoclonal antibodies to Plasmodiumvivax reticulocyte binding protein 2b” (Nature Communications, 2021).

B1: P. vivax Reticulocyte Binding Protein 2b, residues 161–1454 (domain or fragment, P. vivax strain Salvador I, UniProt A5K736 161-1454, looked up)
chain: PSPESTQITNTTDNIDYFDISDESNYYLISQLRPHFSNIYFFDEFKRYASYHTEIKRYEDIHKTKVNSLLNEASRAIGICNRAKNTVKGLINILENPQKFKTQRESYDVKLRQYEEKKEAFRGCLLNKNRKNLDQIKKINNEIRDLLEKLKCSQDCQTNVYFDMIKIYLVDFKKMPYENYDTFIKQYKNSYLSGVDMIRKIEKQIDNPVTINAIKFTQKEMGYIIDRFEYHLQKVKHSIDQVTALSDGVKPKQVTKNRLKEYYFNIGNYYSIFKFGKDSLNMLNKALIHKEKIVHNLLGELFGHLEERISKLIDSEYFITESNNIISQSEETLKLAEDVYDKNTKLIEDLTLYPHLEINEFKKDYDNNVEDLRESIIYIQSYVSSIKSAYRYNVLEKDSVESKQKNIPANSNAQKKVDELLSIIDSISYSNFSVAENFQKMKDYYKEIEKLKIKILQLIEAIKKYQQHVEELINKEKAVAILKEDINKIIEYIKGIIEKLKQLISANKDFDKIFQQVEQLINEALFNKDQFEHNKNDLHTKMKEIMHTFHERDLQQFLDNMSKFLKDQEASYQNADSKEKLDQLLTTVKAKQDELKEMKCDDIPDIIDNLKKESQNVLNLKDEVINKQFENMRTEMSSSLDQMTKEYNALKSSIEEYEAEKKGIENHKQNIIKRKNTFIVAEHENDEDVPEGKNTYNEFISNKDTILQKESAISNQMNTLEEKKRNRKTTLQTYGDAIQKLETYTEKKDEETKVLLDKFNTEVENFKLDEDEKSFNDAKSIVSNTINEVENENKNIDSIKKVNIAMKRSRSNQQSVEQLIRNKDNLLKEKMEKHFQKINTDEIIGQSAKANLLNNLESEKAIINEQLNDAHLNDLKLQIEKTLSYCEKSRENIKGNNGTHPEELNASEIEWEATKGKIETLNSNYQALNKNMDDIINKQHDEMIVLIDRDIKEKGKDIELKVEQRIQALEKMKAKLSSFDTNEDVKKYQSDINKEELIKLKEMSTAVLNKIDQNKNQLINVKTKSSGYVAESNGIKNKQTEPSQEKDKQIVYNTNRGDIEKVYKNIRDMYNELDDVEKEETTSNEVDNIEMQYDRLLINLLVQKINEENTKAKGLMEEIKSYIENIESVQAKMSDETREGATEFEFNQYQQSSLANDKKITEIVQHAINKKGEAERSKKTNEVKSIKNDVNTYMQQVIDEYNAMQKALGDIKNVNDLLISTSGRRIAEEISKSTNEAENFEKQAKGELGKINDIIEKMENQMVQAKEHENKIHINLEDKQIDEEVQKIRQIHEE
modifications: DyLight 488 (NHS ester) in the FRET assay; biotin (BirA site) in the competition ELISA between human mAbs
notes: PvRBP2b, P. vivax strain Salvador I, PlasmoDB PVX_094255 (total length 2806 amino acids), residues 161-1454; also called PvRBP2b_(161–1454); PvRBP2b; source: recombinant; expressed and purified in a similar manner as PvRBP2b161–470 (E. coli SHuffle T7; HisTrap, Q-Sepharose, size exclusion) or as previously described
B2: PvRBP2b human mAb 283284 (antibody, V domains shown)
VH: QVQLQQWGAGLLKPSETLALTCTVYGGSSSGYYWNWIRQSPGKGLEWIGEISDSGSTIYNPSLESRVTMSVDTSKNQFSLKLTSVTAADTAVYYCAKAILTRYNWLDPWSQGTLVTVSS
VL: DIVMTQSPSSLSASVGDRISISCRASQGVNSALAWYQQKPGKAPKLLIYDASTLESGVPSRFSGSGSGTDFALTINSLQPEDFATYYCQQFNSYPLTFGGGTKVEIK
notes: variable region as the Fab heavy chain in PDB 6WQO; cloned into a human IgG1 backbone, full-length antibody; kappa light chain; as the Fab light chain in PDB 6WQO; IgG1; source: Expi293 HEK cells, transfected, purified (Protein A, gel filtration)
B3: PvRBP2b human mAb 253245 (antibody, V domains shown)
VH: EVQLVQSGAEVKKPGSSMKVSCKASGGTFNRYVFSWVRQAPGQGLEWMGGILPILETTYYAKNFKGRVTITADESTSTVYMELSSLTSEDTAVYFCARDEHDYVWGSYRPSLTGPWGQGTLVTVSS
VL: QSALTQPPSTSGSPGQSVTISCTGTGIDVGGFSYVSWFQYHPGKAPKLIIFEVTKRPSGVPDRFSGSKSGNTASLTISGLQADDEAEYYCSSYAVNNNFVFGTGTKVTVL
notes: variable region as the Fab heavy chain in PDB 6WTY; cloned into a human IgG1 backbone, full-length antibody; lambda light chain; as the Fab light chain in PDB 6WTY; IgG1; source: Expi293 HEK cells, transfected, purified (Protein A, gel filtration)
B4: PvRBP2b human mAb 251249 (antibody, V domains shown)
VH: EVQLVESGGGLVKPGGSLRLSCEASGFLFSSYSMNWVRQAPGKGLEWVSSITGYSSEVFYTDSVKGRFTVSRDNSKNSLYLQMDSLRAEDTAVYYCARALTIFGVVITDYWFFDLWGRGTLVTVSS
VL: EIVLTQSPATLSLSPGDRATLSCRASQSVTTFLAWYQQKPGQAPRLLIYDVSNRATGIPARFSGSGSGTDFTLTISSLEPEDFAVYYCQQRSNWGLTFGGGTKVEIK
notes: variable region as the Fab heavy chain in PDB 6WOZ; cloned into a human IgG1 backbone, full-length antibody; kappa light chain; as the Fab light chain in PDB 6WOZ; IgG1; source: Expi293 HEK cells, transfected, purified (Protein A, gel filtration)
B5: PvRBP2b human mAb 243244 (antibody, V domains shown)
VH: QVQLVESGGGVVQSGKSLRVSCAASGFTFSSYGMHWVRQAPGKGLEWVAFISYDGDNKYSADSVKGRLTISRDNSKNTLYLQMNSLRPEDTAVYYCAKESNYGENAFDIWGQGTMVTVSS
VL: QSALTQPRSVSGSPGQSVTISCTGTSSDVGFYNFVSWYQHHPGKAPKLIIYDVSERPSGVPDRFSGSKSGNTASLSISGLQPEDEADYYCCSYAGTYTFVFGSGTKVTVL
notes: variable region as the Fab heavy chain in PDB 6WNO; cloned into a human IgG1 backbone, full-length antibody; lambda light chain; as the Fab light chain in PDB 6WNO; IgG1; same clonal group as 237235; source: Expi293 HEK cells, transfected, purified (Protein A, gel filtration)
B6: PvRBP2b human mAb 237235 (antibody, V domains shown)
VH: QVQLVESGGGVVQPGRSLRLSCAASGFMFNSYGMHWVRQAPGKGLEWMAFISYDGSDDYYGDSVKGRITISRDNSKNTLFLHINSLRTEDTAVYYCAKESNYGENAFDVWGHGTMVTVSS
VL: QSALTQPRSVSGSPGQSVTISCTGTSNDVGFYNFVSWYQHHPGKAPKLMIYDVTERPSGVPDRFSGSKSGNTASLTISGLQAEDEAEYYCCSYAGTYTFVFGHGTKVTVL
notes: variable region as the Fab heavy chain in PDB 6WM9; cloned into a human IgG1 backbone, full-length antibody; lambda light chain; as the Fab light chain in PDB 6WM9; IgG1; same clonal group as 243244; source: Expi293 HEK cells, transfected, purified (Protein A, gel filtration)
B7: PvRBP2b human mAb 258259 (antibody, V domains shown)
VH: EVQLLESGGGLVRPGGSQRLSCAASGFTFTPYAMTWVRQAPGKGLEWLSTISGSGGSTYYADSVKGRFTISRDNSKNMLYLQMNSLTAEDTALYYCTKDKDEYTFGHNAFDVWGQGTMVTVSS
VL: SYELTQAPSVSVAPGQTARITCGGDNIGRKTVNWYQQKPGQAPVLVIYYDNDRPSGIPERFSGSNSGNMATLSISRVEVGDEADYYCQVWDSNNDHPVFGGGTKLTVV
notes: variable region as the Fab heavy chain in PDB 6WTV; cloned into a human IgG1 backbone, full-length antibody; lambda light chain; as the Fab light chain in PDB 6WTV; IgG1; same clonal group as 273264; source: Expi293 HEK cells, transfected, purified (Protein A, gel filtration)
B8: PvRBP2b human mAb 273264 (antibody, V domains shown)
VH: EVQLLESGGGLVRPGGSQRLSCAASGFTFTPYAMTWVRQAPGKGLEWLSTISGSGGSTSYADSVKGRFTISRDNSKNILYLQMDSLRAEDTALYYCTKDKDEYTFGHNAFDVWGRGTMVTVSS
VL: SYELTQAPSVSVAPGQTARITCGGDNIGRTSVHWYQQKPGQAPVLVIFYDNDRPSGIPERFSGSNSGNMATLSISRVEVGDEADYYCQVWDSNNDHPVFGGGTKLTVV
notes: variable region as the Fab heavy chain in PDB 6WTU; cloned into a human IgG1 backbone, full-length antibody; lambda light chain; as the Fab light chain in PDB 6WTU; IgG1; same clonal group as 258259; source: Expi293 HEK cells, transfected, purified (Protein A, gel filtration)
B9: PvRBP2b human mAb 241242 (antibody, V domains shown)
VH: EVQLLESGGGLVQPGGSLRLSCAVSGFTFRNYALSWVRQAPGKGLDWVSTISASGGATYYADSVKGHFTISRDNSKNILYLDMKSLRAEDTAIYYCARDGGSYTPYFFLDSWGQGALVTVSS
VL: SYELTQPASVSVAPGQTAQITCGGNSIGRKSIHWYQHKPGQAPVLVISYDSDRPSGIPERFSGSNSGNTATLTISKVEAGDEADFYCQVRDSDNDHVVFGGGTKLTVL
notes: variable region as the Fab heavy chain in PDB 6WN1; cloned into a human IgG1 backbone, full-length antibody; lambda light chain; as the Fab light chain in PDB 6WN1; IgG1; also called 241424 [sic]; source: Expi293 HEK cells, transfected, purified (Protein A, gel filtration)

What was measured:
Conditions in all cases: both partners purified
[1] = biological target: T1, human Transferrin receptor 1 – Transferrin (human, UniProt P02786 121-760; P02787 20-698, DyLight 594 (NHS ester) in the FRET assay); experiment: FRET or BRET; PvRBP2b161–1454-DL488, TfR1-DL594 and Tf at 1:1:1 molar ratio, 5-fold excess of human mAbs; 50 mM Tris-HCl pH 6.8, 150 mM NaCl, 0.01% BSA
T1 construct: soluble ectodomain of human transferrin receptor 1, residues 121-760; follows the GP67 leader peptide, a 6xHis-tag and a factor Xa site; transferrin purified from human serum (apo-transferrin), loaded with iron to holo-transferrin; TfR1 and Tf were mixed with PvRBP2b in equal amounts in the assays; also called TfR1–Tf; TfR1 and Tf; copies: 2 + 2

[2] = biological target: T2, P. vivax Reticulocyte Binding Protein 2b, residues 161–1454 (P. vivax strain Salvador I, UniProt A5K736, DyLight 488 (NHS ester) in the FRET assay; biotin (BirA site) in the competition ELISA between human mAbs); experiment: ELISA; plates coated with 65 nM recombinant protein in PBS at 4 °C overnight; human mAbs at 1 μg/mL, 1 h room temperature; HRP anti-human secondary; specificity panel and PvRBP2b fragments
T2 construct: PvRBP2b, P. vivax strain Salvador I, PlasmoDB PVX_094255 (total length 2806 amino acids), residues 161-1454; also called PvRBP2b_(161–1454); PvRBP2b; source: recombinant; expressed and purified in a similar manner as PvRBP2b161–470 (E. coli SHuffle T7; HisTrap, Q-Sepharose, size exclusion) or as previously described

[3] = biological target: T2, P. vivax Reticulocyte Binding Protein …; experiment: ELISA; avidity ELISA: plates coated with 50 ng PvRBP2b161–1454; human mAbs at 0.2 µg/mL; then PBS, 0.5, 1 or 2 M NH4SCN for 20 min; binding relative to no NH4SCN
[4] = biological target: T2, P. vivax Reticulocyte Binding Protein …; experiment: flow cytometry on cells; PvRBP2b161–1454 at 4 μg/mL with human mAbs at 5-fold molar excess and reticulocytes, 1 h room temperature; inhibition relative to no mAb
[5] = biological target: T2, P. vivax Reticulocyte Binding Protein …; experiment: FRET or BRET; PvRBP2b161–1454-DL488, TfR1-DL594 and Tf at 1:1:1 molar ratio, 5-fold excess of human mAbs; 50 mM Tris-HCl pH 6.8, 150 mM NaCl, 0.01% BSA

T1 sequence (P02786 121-760, chain 1 of 2): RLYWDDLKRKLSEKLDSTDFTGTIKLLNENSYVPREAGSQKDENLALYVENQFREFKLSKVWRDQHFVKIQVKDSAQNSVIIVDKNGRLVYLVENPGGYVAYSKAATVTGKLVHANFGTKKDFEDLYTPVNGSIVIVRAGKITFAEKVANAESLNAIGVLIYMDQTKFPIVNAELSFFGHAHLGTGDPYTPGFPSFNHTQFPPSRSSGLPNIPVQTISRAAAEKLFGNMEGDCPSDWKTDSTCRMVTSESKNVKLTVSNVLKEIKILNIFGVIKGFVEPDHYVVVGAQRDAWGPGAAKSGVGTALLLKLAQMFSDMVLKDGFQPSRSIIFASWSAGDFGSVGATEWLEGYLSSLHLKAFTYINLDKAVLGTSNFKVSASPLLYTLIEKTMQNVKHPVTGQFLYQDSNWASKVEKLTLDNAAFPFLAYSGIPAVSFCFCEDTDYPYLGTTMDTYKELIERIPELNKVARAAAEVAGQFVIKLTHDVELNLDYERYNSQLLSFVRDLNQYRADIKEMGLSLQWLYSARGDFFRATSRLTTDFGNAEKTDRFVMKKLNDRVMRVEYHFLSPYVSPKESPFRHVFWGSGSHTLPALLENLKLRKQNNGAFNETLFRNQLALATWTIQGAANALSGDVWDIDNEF
T1 sequence (P02787 20-698, chain 2 of 2): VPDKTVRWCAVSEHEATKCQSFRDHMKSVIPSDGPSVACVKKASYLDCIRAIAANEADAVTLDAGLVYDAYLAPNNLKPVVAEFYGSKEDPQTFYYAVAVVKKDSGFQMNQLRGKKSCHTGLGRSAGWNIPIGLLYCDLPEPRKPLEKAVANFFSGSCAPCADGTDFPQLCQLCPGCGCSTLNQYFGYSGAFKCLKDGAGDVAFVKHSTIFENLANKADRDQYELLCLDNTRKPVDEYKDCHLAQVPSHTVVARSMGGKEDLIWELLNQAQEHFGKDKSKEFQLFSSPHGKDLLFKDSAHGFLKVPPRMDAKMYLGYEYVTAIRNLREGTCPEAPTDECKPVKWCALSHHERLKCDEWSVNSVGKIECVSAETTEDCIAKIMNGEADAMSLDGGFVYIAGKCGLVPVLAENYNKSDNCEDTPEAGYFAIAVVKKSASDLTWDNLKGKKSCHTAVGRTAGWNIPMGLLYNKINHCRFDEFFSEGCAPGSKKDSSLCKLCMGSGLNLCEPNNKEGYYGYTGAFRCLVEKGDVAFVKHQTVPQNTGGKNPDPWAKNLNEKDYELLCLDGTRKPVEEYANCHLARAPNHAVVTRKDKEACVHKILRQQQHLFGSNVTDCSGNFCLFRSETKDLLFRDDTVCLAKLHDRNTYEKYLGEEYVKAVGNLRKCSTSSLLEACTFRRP

Row | Binder | binding result [1] | fold signal over control mAbs 099100 and 043038 [2] | percent binding left at 1 M NH4SCN [3] | percent inhibition of PvRBP2b161–1454 binding to reticulocytes [4] | percent binding left at 2 M NH4SCN [3] | percent decrease in FRET signal of PvRBP2b161–1454 with TfR1–Tf [5]
1 | B1 | binds | – | – | – | – | –
2 | B2 | – | > 20 fold | < 75% | – | – | –
3 | B3 | – | > 20 fold | > 75% | > 98% | < 75% | > 70%
4 | B4 | – | > 20 fold | < 75% | 59% | – | –
5 | B5 | – | > 20 fold | – | 43% | > 75% | –
6 | B6 | – | > 20 fold | – | 47% | > 75% | –
7 | B7 | – | > 20 fold | < 75% | > 98% | – | > 70%
8 | B8 | – | > 20 fold | < 75% | > 98% | – | > 70%
9 | B9 | – | > 20 fold | > 75% | > 98% | < 75% | > 70%
